Test results taken from article PMC11145553, “SORL1 is a receptor for tau that promotes tau seeding” (The Journal of Biological Chemistry, 2024).

Assays:
Details in all cases: both partners purified
[1] = molecular target: T1, Phosphorylated 2N4R tau produced in SF9 cells (human, UniProt P10636-8 1-441, phosphorylated (hyperphosphorylated forms; intermediate tau phosphorylation state); sites not given); assay: SPR; SORL1 VPS10 domain amine-coupled to a CM5 chip; tau in single cycle titrations (3.8-310 nM); 0.15 M NaCl, 0.05% Tween 20, 1 mM CaCl2 pH 7.4; kinetic analysis, 1:1 fit, KD calculated from the kinetic parameters
T1 construct: also called 2N4R SF9; SF9 tau; source: SF9 cells (baculovirus), purified (boiled lysate, HisTrap)
T1 sequence (P10636 other isoform, or with tags, fused parts or gaps): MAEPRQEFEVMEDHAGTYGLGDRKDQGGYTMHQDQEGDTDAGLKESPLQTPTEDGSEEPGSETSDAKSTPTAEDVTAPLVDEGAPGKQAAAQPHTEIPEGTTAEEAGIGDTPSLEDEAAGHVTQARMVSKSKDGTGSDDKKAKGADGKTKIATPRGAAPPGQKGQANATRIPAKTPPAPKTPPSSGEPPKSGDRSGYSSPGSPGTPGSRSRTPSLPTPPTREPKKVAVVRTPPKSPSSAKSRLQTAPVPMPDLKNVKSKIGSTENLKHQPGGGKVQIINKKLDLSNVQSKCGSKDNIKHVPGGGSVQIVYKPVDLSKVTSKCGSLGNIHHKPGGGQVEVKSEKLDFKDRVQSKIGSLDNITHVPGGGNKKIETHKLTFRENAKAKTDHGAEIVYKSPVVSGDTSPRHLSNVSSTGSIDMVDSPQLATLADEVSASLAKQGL

[2] = molecular target: T2, Recombinant human 2N4R tau (full-length tau), WT (human, UniProt P10636-8 1-441); assay: as above
T2 construct: the His tag applies only to the in-house protein; The uptake assays used 125I-labeled R&D SP-495; also called monomeric tau; microtubule-associated protein tau; source: His-tagged, E. coli, purified, or bought: R&D Systems (SP-495)
T2 sequence (P10636 other isoform, or with tags, fused parts or gaps): as above

[3] = molecular target: T1, Phosphorylated 2N4R tau produced in SF9 …; assay: SPR; SORL1 VPS10 domain amine-coupled to a CM5 chip; tau in single cycle titrations (3.8-310 nM); 0.15 M NaCl, 0.05% Tween 20, 1 mM CaCl2 pH 7.4; equilibrium analysis (Req from a pseudo-first-order fit)

- Kd [1]: 78 nM
- koff [1]: 0.0061 s⁻¹
- kon [1]: 85000 M⁻¹ s⁻¹
- Kd [2]: 15 nM
- koff [2]: 0.41 s⁻¹
- kon [2]: 5e+07 M⁻¹ s⁻¹
- Kd [3]: 95 nM
B1: Recombinant human SORL1 VPS10 domain, aa 82 to 753 (domain or fragment, UniProt Q92673 82-753, looked up)
chain: SAALQPEPIKVYGQVSLNDSHNQMVVHWAGEKSNVIVALARDSLALARPKSSDVYVSYDYGKSFKKISDKLNFGLGNRSEAVIAQFYHSPADNKRYIFADAYAQYLWITFDFCNTLQGFSIPFRAADLLLHSKASNLLLGFDRSHPNKQLWKSDDFGQTWIMIQEHVKSFSWGIDPYDKPNTIYIERHEPSGYSTVFRSTDFFQSRENQEVILEEVRDFQLRDKYMFATKVVHLLGSEQQSSVQLWVSFGRKPMRAAQFVTRHPINEYYIADASEDQVFVCVSHSNNRTNLYISEAEGLKFSLSLENVLYYSPGGAGSDTLVRYFANEPFADFHRVEGLQGVYIATLINGSMNEENMRSVITFDKGGTWEFLQAPAFTGYGEKINCELSQGCSLHLAQRLSQLLNLQLRRMPILSKESAPGLIIATGSVGKNLASKTNVYISSSAGARWREALPGPHYYTWGDHGGIITAIAQGMETNELKYSTNEGETWKTFIFSEKPVFVYGLLTEPGEKSTVFTIFGSNKENVHSWLILQVNATDALGVPCTENDYKLWSPSDERGNECLLGHKTVFKRRTPHATCFNGEDFDRPVVVSNCSCTREDYECDFGFKMSEDLSLEVCVPDPEFSGKSYSPPVPCPVGSTYRRTRGYRKISGDTCSGGDVEARLEGELVPCP
notes: VPS10 domain of sortilin-related receptor 1 (SORL1), human, residues 82-753; also called vacuolar protein sorting 10 domain of SORL1; VPS10 peptide; source: bought: R&D Systems (9880-LA)
